These results are taken from paper PMC5798300.

This assay has as its target (2S)-methylsuccinyl-CoA dehydrogenase from Paracoccus denitrificans, wild type, as used for analytical size-exclusion chromatography (Paracoccus denitrificans). Put plainly: SEC; analytical; Superdex 200 Increase 10/300 GL, 100 µl at 2 mg/ml, 0.7 ml/min, 20 mM Tris-HCl pH 7.9, 200 mM NaCl; enzymes incubated with 500 µM FAD for 1 h on ice beforehand; calibrated with a gel filtration standard.

Substance “(2S)-methylsuccinyl-CoA dehydrogenase from Paracoccus denitrificans, wild type, as used for analytical size-exclusion chromatography (enzyme)” yielded a stoichiometry N of 2.
